Data: patent US20220135638A1 (Takeda / Millennium, published 2022)
Numbered stars: 1 amine (or outer) side, 2 acyl side, 3 side chain; on linkers, the order of the positions; unused ones are H or OH. Square brackets hold non-standard residues; d marks the D form. Primed or numbered codes have the meaning given here. Side chains are listed from the residue outwards. Ends that are not written are not given here. * marks the point of attachment. C20 diacid = O=C(O)CCCCCCCCCCCCCCCCCCC(=O)*; C18 diacid = O=C(O)CCCCCCCCCCCCCCCCC(=O)*; C16 diacid = O=C(O)CCCCCCCCCCCCCCC(=O)*; γGlu = O=C(O)[C@H](CCC(=O)[*:2])N[*:1]; Iva = CC[C@](C)(N)C(=O)O; PEG3′ = not defined here; Aib = CC(C)(N)C(=O)O

T1: full-length human GLP-1R (GenBank NM_002062) with an N-terminal FLAG tag on HEK-293T cells (human), P43220
T1 chain: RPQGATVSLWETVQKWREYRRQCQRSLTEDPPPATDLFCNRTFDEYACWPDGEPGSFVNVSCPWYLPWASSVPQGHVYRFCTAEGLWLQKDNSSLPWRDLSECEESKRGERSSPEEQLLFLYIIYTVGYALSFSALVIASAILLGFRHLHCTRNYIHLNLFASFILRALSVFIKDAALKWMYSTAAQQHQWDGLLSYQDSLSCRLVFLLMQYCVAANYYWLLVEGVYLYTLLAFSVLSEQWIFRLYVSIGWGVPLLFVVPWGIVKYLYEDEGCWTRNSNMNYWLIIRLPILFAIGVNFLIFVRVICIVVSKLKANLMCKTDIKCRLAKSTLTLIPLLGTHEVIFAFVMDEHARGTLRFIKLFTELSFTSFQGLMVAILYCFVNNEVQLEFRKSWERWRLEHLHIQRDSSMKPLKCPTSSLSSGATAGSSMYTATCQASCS

T2: full-length human GIPR (GenBank NM_000164) with an N-terminal FLAG tag on HEK-293T cells (human), P48546
T2 chain: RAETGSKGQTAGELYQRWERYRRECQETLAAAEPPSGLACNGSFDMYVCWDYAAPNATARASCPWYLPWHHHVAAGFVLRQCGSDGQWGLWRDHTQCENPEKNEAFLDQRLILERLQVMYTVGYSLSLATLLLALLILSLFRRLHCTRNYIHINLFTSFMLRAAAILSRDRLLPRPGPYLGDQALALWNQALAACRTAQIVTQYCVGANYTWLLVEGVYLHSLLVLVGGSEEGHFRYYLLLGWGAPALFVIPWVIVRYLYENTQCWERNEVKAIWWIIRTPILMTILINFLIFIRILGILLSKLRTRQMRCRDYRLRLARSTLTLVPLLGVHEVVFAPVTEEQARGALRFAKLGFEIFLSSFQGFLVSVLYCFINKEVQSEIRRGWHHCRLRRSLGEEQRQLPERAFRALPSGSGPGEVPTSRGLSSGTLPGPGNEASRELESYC


Assays:
[1] = target: T1, full-length human GLP-1R (GenBank …); experiment: cell-based or functional assay
[2] = target: T2, full-length human GIPR (GenBank …); experiment: cell-based or functional assay

Row | Binder | GLP EC50 [1] [µM] | GIP EC50(pM) [2] [pM]
1 | Y[Aib]EGTFISDYSIALDR[Aib]HQ[Aib]NFVNW[Iva]LAQRPK([PEG3′-γGlu-C20 diacid])SGAPPPS (ends and bridges not checked) [Compound No. 514] | > 1 | 1.14
2 | Y[Aib]EGTFISDYSIALDR[Aib]HQ[Aib]NFVNW[Iva]LAQRPSSGK([PEG3′-γGlu-C20 diacid])PPPS (ends and bridges not checked) [Compound No. 523] | > 1 | 2.98
3 | Y[Aib]EGTFISDYSIALDR[Aib]HQ[Aib]NFVNW[Iva]LAQRPSSGAK([PEG3′-PEG3′-γGlu-C20 diacid])PPS (ends and bridges not checked) [Compound No. 502] | > 1 | 1.78
4 | Y[Aib]EGTFISDYSIALDR[Aib]HQ[Aib]NFVNW[Iva]LAQRK([PEG3′-γGlu-C18 diacid])SSGAPPPS (ends and bridges not checked) [Compound No. 510] | > 1 | 0.83
5 | Y[Aib]EGTFISDYSIALDR[Aib]HQ[Aib]NFVNW[Iva]LAQRPSK([PEG3′-γGlu-C20 diacid])GAPPPS (ends and bridges not checked) [Compound No. 517] | > 1 | 1.99
6 | Y[Aib]EGTFISDYSIALDR[Aib]HQ[Aib]NFVNW[Iva]LAQRPSSGAPK([PEG3′-PEG3′-γGlu-C16 diacid])PS (ends and bridges not checked) [Compound No. 503] | > 1 | 0.49
7 | Y[Aib]EGTFISDYSIALDR[Aib]HQ[Aib]NFVNW[Iva]LAQRPK([PEG3′-γGlu-C18 diacid])SGAPPPS (ends and bridges not checked) [Compound No. 513] | > 1 | 0.5
8 | Y[Aib]EGTFISDYSIALDR[Aib]HQ[Aib]NFVNW[Iva]LAQRPSK([PEG3′-γGlu-C16 diacid])GAPPPS (ends and bridges not checked) [Compound No. 515] | > 1 | 0.54
9 | Y[Aib]EGTFISDYSIALDR[Aib]HQ[Aib]NFVNW[Iva]LAQRPSSGAK([PEG3′-PEG3′-γGlu-Ida])PPS (ends and bridges not checked) [Compound No. 501] | > 1 | 0.92
10 | Y[Aib]EGTFISDYSIALDR[Aib]HQ[Aib]NFVNW[Iva]LAQRPSSK([PEG3′-γGlu-C20 diacid])APPPS (ends and bridges not checked) [Compound No. 520] | > 1 | 2.68
11 | Y[Aib]EGTFISDYSIALDR[Aib]HQ[Aib]NFVNW[Iva]LAQRPSSGAK([PEG3′-γGlu-C16 diacid])PPS (ends and bridges not checked) [Compound No. 524] | > 1 | 1.29
12 | Y[Aib]EGTFISDYSIALDR[Aib]HQ[Aib]NFVNW[Iva]LAQRPSSGAK([PEG3′-PEG3′-γGlu-C16 diacid])PPS (ends and bridges not checked) [Compound No. 500] | > 1 | 0.59
13 | Y[Aib]EGTFISDYSIALDR[Aib]HQ[Aib]NFVNW[Iva]LAQRK([PEG3′-γGlu-C20 diacid])SSGAPPPS (ends and bridges not checked) [Compound No. 511] | > 1 | 1.61
14 | Y[Aib]EGTFISDYSIALDR[Aib]HQ[Aib]NFVNW[Iva]LAQRPSSGAPK([PEG3′-PEG3′-γGlu-C20 diacid])PS (ends and bridges not checked) [Compound No. 505] | > 1 | 2.11
15 | Y[Aib]EGTFISDYSIALDR[Aib]HQ[Aib]NFVNW[Iva]LAQRPSSGAK([PEG3′-γGlu-C20 diacid])PPS (ends and bridges not checked) [Compound No. 526] | > 1 | 1.5
16 | Y[Aib]EGTFISDYSIALDR[Aib]HQ[Aib]NFVNW[Iva]LAQRPSK([PEG3′-γGlu-C18 diacid])GAPPPS (ends and bridges not checked) [Compound No. 516] | > 1 | 1.02
17 | Y[Aib]EGTFISDYSIALDR[Aib]HQ[Aib]NFVNW[Iva]LAQRPSSGK([PEG3′-γGlu-C18 diacid])PPPS (ends and bridges not checked) [Compound No. 522] | > 1 | 1.51
18 | Y[Aib]EGTFISDYSIALDR[Aib]HQ[Aib]NFVNW[Iva]LAQRPSSGAK([PEG3′-γGlu-C18 diacid])PPS (ends and bridges not checked) [Compound No. 525] | > 1 | 0.82
19 | Y[Aib]EGTFISDYSIALDR[Aib]HQ[Aib]NFVNW[Iva]LAQRPK([PEG3′-γGlu-C16 diacid])SGAPPPSS (ends and bridges not checked) [Compound No. 512] | 0.126 | 0.53
20 | Y[Aib]EGTFISDYSIALDR[Aib]HQ[Aib]NFVNW[Iva]LAQRPSSGAPK([PEG3′-PEG3′-γGlu-Ida])PS (ends and bridges not checked) [Compound No. 504] | > 1 | 1.08
21 | Y[Aib]EGTFISDYSIALDR[Aib]HQ[Aib]NFVNW[Iva]LAQRK([PEG3′-γGlu-C16 diacid])SSGAPPPS (ends and bridges not checked) [Compound No. 509] | > 1 | 0.54
22 | Y[Aib]EGTFISDYSIALDR[Aib]HQ[Aib]NFVNW[Iva]LAQRPSSK([PEG3′-γGlu-C16 diacid])APPPS (ends and bridges not checked) [Compound No. 518] | > 1 | 0.61
23 | Y[Aib]EGTFISDYSIALDR[Aib]HQ[Aib]NFVNW[Iva]LAQRPSSGK([PEG3′-γGlu-C16 diacid])PPPS (ends and bridges not checked) [Compound No. 521] | > 1 | 0.9
24 | Y[Aib]EGTFISDYSIALDR[Aib]HQ[Aib]NFVNW[Iva]LAQRPSSK([PEG3′-γGlu-C18 diacid])APPPS (ends and bridges not checked) [Compound No. 519] | > 1 | 1.26
